Test results published in publication doi:10.1101/2025.07.22.666160, “Alphaherpesvirus pUL21 homologues use non-canonical motifs to compete with cellular adaptors for protein phosphatase 1 binding” (bioRxiv, 2025).
Primed or numbered codes have the meaning given here. Where no end group is shown, it is not given here. FITC′ = fluorescein isothiocyanate; Ahx = NCCCCCC(=O)O

Columns and labels:
Conditions in all cases: both partners purified
[1] = molecular target: T1, mouse PP1γ catalytic domain (residues 7–300)-H6 (mouse, UniProt P63087 7-300); experiment: fluorescence polarisation; competition fluorescence anisotropy; pUL21 titrated into a pre-formed complex of 2 nM FITC-GADD34 peptide and 250 nM PP1γ; Tris pH 8.5 in place of HEPES pH 8
T1 construct: Protein phosphatase 1 gamma catalytic domain, mouse, residues 7-300; also called PP1 catalytic domain; source: E. coli T7 Express lysY/Iq, purified (Ni-NTA, SEC)
T1 sequence (P63087 7-300): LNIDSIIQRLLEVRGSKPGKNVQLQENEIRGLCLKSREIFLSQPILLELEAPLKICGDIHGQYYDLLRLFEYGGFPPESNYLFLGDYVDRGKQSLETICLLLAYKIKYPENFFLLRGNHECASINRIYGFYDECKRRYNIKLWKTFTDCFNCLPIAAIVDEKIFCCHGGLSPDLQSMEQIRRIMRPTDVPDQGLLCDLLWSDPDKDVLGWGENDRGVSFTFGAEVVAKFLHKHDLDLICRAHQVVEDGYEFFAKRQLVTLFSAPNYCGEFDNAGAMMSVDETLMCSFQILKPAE

[2] = molecular target: T1, mouse PP1γ catalytic domain (residues …); experiment: fluorescence polarisation; fluorescence anisotropy; serial dilution of PP1γ catalytic domain with 2 nM FITC-GADD34 peptide; Tris pH 8.5 in place of HEPES pH 8
[3] = molecular target: T1, mouse PP1γ catalytic domain (residues …); experiment: fluorescence polarisation; fluorescence anisotropy; serial dilution of PP1γ catalytic domain with 2 nM FITC-GADD34 peptide; 27°C; 50 mM HEPES pH 8.0, 500 mM NaCl, 0.05% TWEEN-20; one-site model
[4] = molecular target: T1, mouse PP1γ catalytic domain (residues …); experiment: fluorescence polarisation; competition fluorescence anisotropy; competitor titrated into a pre-formed complex of 2 nM FITC-GADD34 peptide and 250 nM PP1γ (final); 27°C; 50 mM HEPES pH 8.0, 500 mM NaCl, 0.05% TWEEN-20
[5] = molecular target: T1, mouse PP1γ catalytic domain (residues …); experiment: ITC; 25°C; 50 mM HEPES pH 8.0, 500 mM NaCl, 0.5 mM TCEP; 12 x 3 µL injections; one-site binding model; syringe and cell contents in Table S1

B1: pUL21-RVxF-H6 (A237V+V239F) (natural protein)
chain: MELSYATTMHYRDVVFYVTTDRNRAYFVCGGCVYSVGRPCASQPGEIAKFGLVVRGTGPDDRVVANYVRSELRQRGLQDVRPIGEDEVFLDSVCLLNPNVSSELDVINTNDVEVLDECLAEYCTSLRTSPGVLISGLRVRAQDRIIELFEHPTIVNVSSHFVYTPSPYVFALAQAHLPRLPSSLEALVSGLFDGIPAPRQPLDAHNPRTDVVITGRRAPRPIAGSGAGSGGAGAKRVTFSEFVQVKHIDRVGPAGVSPAPPPNNTDSSSLVPGAQDSAPPGPTLRELWWVFYAADRALEEPRADSGLTREEVRAVRGFREQAWKLFGSAGAPRAFIGAALGLSPLQKLAVYYYIIHRERRLSPFPALVRLVGRYTQRHGLYVPRPDDPVLADAINGLFRDALAAGTTAEQLLMFDLLPPKDVPVGSDVQADSTALLRFIESQRLAVPGGVISPEHVAYLGAFLSVLYAGRGRMSAATHTARLTGVTSLVLAVGDVDRLSAFDRGAAGAASRTRAAGYLDVLLTVRLARSQHGQSV
notes: HSV-1 pUL21 with A237V and V239F, made from pUL21-H6 (the full-length protein) by site-directed mutagenesis; methods, results and legend say V239F; also called RVxF pUL21; A237V+V239F (RVxF) mutant; source: E. coli T7 Express lysY/Iq, purified (Ni-NTA, SEC); not shown: His6, C-terminal, kept
**Q.** How did the IC50 [1] turn out when B1 was run?
**A.** 337 nM

B2: GADD34 RVxF+ϕϕ[xF] peptide (residues 552–568), FITC-labelled (peptide)
peptide: {FITC′-Ahx}-KARKVRFSEKVTVHFLA
notes: GADD34 (PP1 regulatory subunit 15A, PPP1R15A), residues 552-568 with the RVxF and ϕϕ[xF] motifs; also called GADD34 peptide; fluorescent GADD34 peptide; source: synthetic peptide (GenScript, >95% purity)
**Q.** For B2, which Kd [2] is on record?
**A.** 55 nM

**Q.** And the Kd [3]?
**A.** 144 nM

B3: pORF38-NLT-H6 (residues 1–263) (domain or fragment)
chain: MEFPYHSTVSYNGVTFYFNERATRAYFICGGCLISIPRKHGGEIAKFGHVVRGVGPGDRSVASYVRSELNRTGKTWAVSSNNNCVFLDRVALLAAGSGAVDRDLCGTFDVEVEDPTLADYLVSLPVTHLTLVAGVDVTRENKLKLFPTPTAINTTNGFMYVPNEASFSLVYMRMLELPESLQELVSGLFDGTPEIRDALNGSNDDEKTSIIVSRRAADVVTEDVKADDVPISGEPYSEKQPRRRKKSDHITLSNFVQIRTIPR
notes: VZV pORF38 residues 1-263: N-terminal domain plus linker region to the end of the TROPPO motif (NLT region); Sub-cloned into the vector pOPTnH; also called pOPF38-NLT; source: E. coli T7 Express lysY/Iq, purified (Ni-NTA, SEC); not shown: His6, C-terminal, kept
**Q.** For B3, which IC50 [4] is on record?
**A.** 417 nM

**Q.** What about the Kd [5] of the same binder?
**A.** 497 nM

**Q.** What about the “stoichiometry N” value [5] of the same binder?
**A.** 1
